T1: ER-luminal part of the human Bri protein (human, UniProt Q9Y287 90-236, limits assumed)
T1 construct: domain: ER-luminal part
T1 sequence (looked up): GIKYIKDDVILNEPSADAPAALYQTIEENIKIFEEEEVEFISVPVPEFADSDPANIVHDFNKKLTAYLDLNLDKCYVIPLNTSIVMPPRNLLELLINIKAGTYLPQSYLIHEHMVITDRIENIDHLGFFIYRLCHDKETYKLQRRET

T2: KRLLLLLLLL, Leu-substituted version of SP-C 11-20, spot 8 (human)
T2 peptide: KRLLLLLLLL

T3: RLLLLLLLLL, Leu-substituted version of SP-C 12-21, spot 11 (human)
T3 peptide: RLLLLLLLLL

T4: KRAAAAAAAA, Ala-substituted version of SP-C 11-20, spot 9 (human)
T4 peptide: KRAAAAAAAA

T5: RAAAAAAAAA, Ala-substituted version of SP-C 12-21, spot 12 (human)
T5 peptide: RAAAAAAAAA

T6: LVVVVIVGAL (positions 22-31 in SP-C^I23V), spots 21 and 23 (human)
T6 construct: also called spot 21; spot 23
T6 peptide: LVVVVIVGAL

B1: cellulose-bound decamer of F (peptide)
peptide: FFFFFFFFFF
notes: also called stretch of F
B2: LLLLLLLLLL, poly-leucine 10-mer peptide, spot 17 (peptide)
peptide: LLLLLLLLLL
notes: also called decamer of L
B3: S-tagged recombinant human CTproSP-C (proSP-C^59-197) (other)
chain: GSGMKETAAAKFERQHMDSPDLGTDDDDKAMAHMSQKHTEMVLEMSIGAPEAQQRLALSEHLVTTATFSIGSTGLVVYDYQQLLIAYKPAPGTCCYIMKIAPESIPSLEALTRKVHNFQMECSLQAKPAVPTSKLGQAEGRDAGSAPSGGDPAFLGMAVSTLCGEVPLYYI
notes: SEC and ESI-MS show mainly trimers and oligomers of trimers; also called CTC; C-terminal domain of lung surfactant protein C precursor
B4: Recombinant human CTproSP-CBrichos (human proSP-C^94-197), S-tagged (other)
chain: FSIGSTGLVVYDYQQLLIAYKPAPGTCCYIMKIAPESIPSLEALNRKVHNFQMECSLQAKPAVPTSKLGQAEGRDAGSAPSGGDPAFLGMAVNTLCGEVPLYYI
notes: also called Brichos domain of human CTproSP-C; Brichos region; not shown: S-tag and vector residues from pET-32c left after thrombin cleavage
B5: cellulose-bound decamer of P (peptide)
peptide: PPPPPPPPPP
notes: also called P counterpart
B6: Recombinant human CTproSP-C^L188Q, S-tagged (other)
chain: HMSQKHTEMVLEMSIGAPEAQQRLALSEHLVTTATFSIGSTGLVVYDYQQLLIAYKPAPGTCCYIMKIAPESIPSLEALNRKVHNFQMECSLQAKPAVPTSKLGQAEGRDAGSAPSGGDPAFLGMAVNTQCGEVPLYYI
notes: also called mutant human CTproSP-C^L188Q; not shown: S-tag left after thrombin cleavage
B7: AAAAAAAAAA, poly-alanine 10-mer peptide, spot 18 (peptide)
peptide: AAAAAAAAAA
notes: also called decamer of A
B8: cellulose-bound decamer of Y (peptide)
peptide: YYYYYYYYYY
notes: also called stretch of Y
B9: cellulose-bound decamer of M (peptide)
peptide: MMMMMMMMMM
notes: also called stretch of M
B10: cellulose-bound decamer of I (peptide)
peptide: IIIIIIIIII
notes: also called stretch of I
B11: cellulose-bound decamer of G (peptide)
peptide: GGGGGGGGGG
notes: also called G counterpart
B12: cellulose-bound decamer of W (peptide)
peptide: WWWWWWWWWW
notes: also called W counterpart

Assays:
[1] = molecular target: T1, ER-luminal part of the human Bri protein; assay: cellulose-bound decamer SPOT membrane, control
Experimental: (§1) After blocking with 2% BSA for one hour and washing with T-TBS 4×1 h, the membranes were incubated with HRP-conjugated S-protein (Novagen, Madison, Wis.) diluted 1:5000.

[2] = molecular target: T2, KRLLLLLLLL, Leu-substituted version of …; assay: peptide SPOT membrane, spot 8
Experimental: (§2) SPOT membranes (Frank R, J Immunol Meth, 267:13-26, 2002), containing 10-residue fragments derived from SP-C(SP-C^I23V) were purchased from Sigma Genosys (Cambridge, England). […] The membranes were then blocked with 2% BSA in TBS for one hour. After washing with T-TBS 4×1 h, the membranes were incubated with HRP-conjugated S-protein (Novagen, Madison, Wis.) diluted 1:5000 in T-TBS containing 2% BSA. The membranes were then washed again with T-TBS 4×1 h and binding was visualized by ECL according to the manufacturer's instructions.

[3] = molecular target: T3, RLLLLLLLLL, Leu-substituted version of …; assay: peptide SPOT membrane, spot 11
Experimental: as §2

[4] = molecular target: T4, KRAAAAAAAA, Ala-substituted version of …; assay: peptide SPOT membrane, S-protein-HRP, ECL
Experimental: as §2

[5] = molecular target: T5, RAAAAAAAAA, Ala-substituted version of …; assay: peptide SPOT membrane, S-protein-HRP, ECL
Experimental: as §2

[6] = molecular target: B7; assay: peptide SPOT membrane, S-protein-HRP, ECL
Experimental: as §2

[7] = molecular target: B12; assay: cellulose-bound decamer SPOT membrane, S-protein-HRP, ECL
Experimental: as §1

[8] = molecular target: B11; assay: as above
Experimental: as §1

[9] = molecular target: B5; assay: as above
Experimental: as §1

[10] = molecular target: B2; assay: cellulose-bound decamer SPOT membrane, 1 µg/ml protein, S-protein-HRP, ECL
Experimental: as §1

[11] = molecular target: B10; assay: as above
Experimental: as §1

[12] = molecular target: B1; assay: as above
Experimental: as §1

[13] = molecular target: B9; assay: as above
Experimental: as §1

[14] = molecular target: B8; assay: as above
Experimental: as §1

[15] = molecular target: B2; assay: cellulose-bound decamer SPOT membrane
Experimental: as §1

[16] = molecular target: B10; assay: cellulose-bound decamer SPOT membrane
Experimental: as §1

[17] = molecular target: B1; assay: cellulose-bound decamer SPOT membrane
Experimental: as §1

[18] = molecular target: B9; assay: cellulose-bound decamer SPOT membrane
Experimental: as §1

[19] = molecular target: B8; assay: cellulose-bound decamer SPOT membrane
Experimental: as §1

[20] = molecular target: T6, LVVVVIVGAL (positions 22-31 in …); assay: peptide SPOT membrane, S-protein-HRP, ECL
Experimental: as §2

[21] = molecular target: B2; assay: cellulose-bound decamer SPOT membrane, control
Experimental: as §1

[22] = molecular target: B7; assay: cellulose-bound decamer SPOT membrane, control
Experimental: as §1

[23] = molecular target: B10; assay: cellulose-bound decamer SPOT membrane, control
Experimental: as §1

[24] = molecular target: B1; assay: cellulose-bound decamer SPOT membrane, control
Experimental: as §1

[25] = molecular target: B9; assay: cellulose-bound decamer SPOT membrane, control
Experimental: as §1

[26] = molecular target: B8; assay: cellulose-bound decamer SPOT membrane, control
Experimental: as §1

[27] = molecular target: B12; assay: cellulose-bound decamer SPOT membrane, control
Experimental: as §1

[28] = molecular target: B11; assay: cellulose-bound decamer SPOT membrane, control
Experimental: as §1

[29] = molecular target: B5; assay: cellulose-bound decamer SPOT membrane, control
Experimental: as §1

## B1
[1]
  binding result: no binding

## B2
[1]
  binding result: no binding

## B3
[2]
  binding result: binds
[3]
  binding result: binds
[4]
  binding result: no binding (tested: 1 µg/ml)
[5]
  binding result: no binding (tested: 1 µg/ml)
[6]
  binding result: no binding (tested: 1 µg/ml)
[7]
  binding result: no binding (tested: 1 µg/ml)
[8]
  binding result: no binding (tested: 1 µg/ml)
[9]
  binding result: no binding (tested: 1 µg/ml)
[10]
  binding result: binds
[11]
  binding result: binds
[12]
  binding result: binds
[13]
  binding result: binds
[14]
  binding result: binds

## B4
[15]
  binding result: binds
[16]
  binding result: binds
[17]
  binding result: binds
[18]
  binding result: binds
[19]
  binding result: binds

## B5
[1]
  binding result: no binding

## B6
[20]
  binding result: no binding (tested: 1 µg/ml)
[21]
  binding result: no binding
[22]
  binding result: no binding
[23]
  binding result: no binding
[24]
  binding result: no binding
[25]
  binding result: no binding
[26]
  binding result: no binding
[27]
  binding result: no binding
[28]
  binding result: no binding
[29]
  binding result: no binding

## B7
[1]
  binding result: no binding

## B8
[1]
  binding result: no binding

## B9
[1]
  binding result: no binding

## B10
[1]
  binding result: no binding

## B11
[1]
  binding result: no binding

## B12
[1]
  binding result: no binding
